Results published in patent US20110301073.

Key:
[1] = system: R0-VP16 (no tandem repeats) (Xanthomonas sp. (engineered)); assay: cell_activity; conditions: no tandem repeats
[2] = system: nR23570S-dNC (17.5 repeats without N- and C-caps) (Xanthomonas sp. (engineered)); assay: cell_activity; conditions: mock 1.48; caps deleted
[3] = system: TALEN 101139 (synthetic (Xanthomonas TALE)); assay: cell_activity; conditions: paired with 101141
[4] = system: TALE13 C+5 FokI (Xanthomonas axonopodis); assay: cleavage_in_vitro; conditions: two sites, 12 bp spacer
[5] = system: TALE13 C-2 FokI (Xanthomonas axonopodis); assay: cleavage_in_vitro; conditions: two sites, 12 bp spacer
[6] = system: TALE13 C+11 FokI (Xanthomonas axonopodis); assay: cleavage_in_vitro; conditions: two sites, 12 bp spacer
[7] = system: TALE13 C+17 FokI (Xanthomonas axonopodis); assay: cleavage_in_vitro; conditions: two sites, 12 bp spacer
[8] = system: TALEN 101141 (HD half repeat) (synthetic (Xanthomonas TALE)); assay: cell_activity; conditions: paired with 101139
[9] = system: TALE test backbone, repeat 5 RVD SG (synthetic (Xanthomonas TALE)); conditions: ELISA
[10] = system: TALE test backbone, repeat 5 RVD KD (synthetic (Xanthomonas TALE)); conditions: ELISA
[11] = system: TALE test backbone, repeat 5 RVD IA (synthetic (Xanthomonas TALE)); conditions: ELISA
[12] = system: TALE test backbone, repeat 5 RVD RG (synthetic (Xanthomonas TALE)); conditions: ELISA
[13] = system: TALE test backbone, repeat 5 RVD HA (synthetic (Xanthomonas TALE)); conditions: ELISA
[14] = system: TALE test backbone, repeat 5 RVD KT (synthetic (Xanthomonas TALE)); conditions: ELISA
[15] = system: TALE test backbone, repeat 5 RVD NN (Xanthomonas sp. (engineered)); conditions: RVD NN
[16] = system: TALE test backbone, repeat 5 RVD NG (Xanthomonas sp. (engineered)); conditions: RVD NG
[17] = system: TALE test backbone, repeat 5 RVD IP (synthetic (Xanthomonas TALE)); conditions: ELISA
[18] = system: TALE test backbone, repeat 5 RVD TA (synthetic (Xanthomonas TALE)); conditions: ELISA
[19] = system: TALE test backbone, repeat 5 RVD QG (synthetic (Xanthomonas TALE)); conditions: ELISA
[20] = system: TALE test backbone, repeat 5 RVD KG (synthetic (Xanthomonas TALE)); conditions: ELISA
[21] = system: TALE test backbone, repeat 5 RVD NI (Xanthomonas sp. (engineered)); conditions: RVD NI
[22] = system: TALE test backbone, repeat 5 RVD AE (synthetic (Xanthomonas TALE)); conditions: ELISA
[23] = system: TALE test backbone, repeat 5 RVD YG (synthetic (Xanthomonas TALE)); conditions: ELISA
[24] = system: TALE test backbone, repeat 5 RVD QA (synthetic (Xanthomonas TALE)); conditions: ELISA
[25] = system: TALE test backbone, repeat 5 RVD KI (Xanthomonas sp. (engineered)); conditions: RVD KI
[26] = system: TALE test backbone, repeat 5 RVD LA (synthetic (Xanthomonas TALE)); conditions: ELISA
[27] = system: TALE test backbone, repeat 5 RVD TP (synthetic (Xanthomonas TALE)); conditions: ELISA
[28] = system: TALE test backbone, repeat 5 RVD GG (synthetic (Xanthomonas TALE)); conditions: ELISA
[29] = system: TALE test backbone, repeat 5 RVD AA (synthetic (Xanthomonas TALE)); conditions: ELISA
[30] = system: TALE test backbone, repeat 5 RVD RA (synthetic (Xanthomonas TALE)); conditions: ELISA
[31] = system: TALE test backbone, repeat 5 RVD HD, standard framework (SEQ 333) (Xanthomonas sp. (engineered)); conditions: RVD HD
[32] = system: TALE test backbone, repeat 5 RVD AN (synthetic (Xanthomonas TALE)); conditions: ELISA
[33] = system: TALE test backbone, repeat 5 RVD NS (synthetic (Xanthomonas TALE)); conditions: ELISA
[34] = system: TALE test backbone, repeat 5 RVD DK (synthetic (Xanthomonas TALE)); conditions: ELISA
[35] = system: TALE test backbone, repeat 5 RVD RI (synthetic (Xanthomonas TALE)); conditions: ELISA
[36] = system: TALE test backbone, repeat 5 RVD IG (synthetic (Xanthomonas TALE)); conditions: ELISA
[37] = system: TALE test backbone, repeat 5 RVD HN (synthetic (Xanthomonas TALE)); conditions: ELISA
[38] = system: TALE test backbone, repeat 5 RVD HI (Xanthomonas sp. (engineered)); conditions: RVD HI
[39] = system: TALE test backbone, repeat 5 RVD SN (synthetic (Xanthomonas TALE)); conditions: ELISA
[40] = system: TALE test backbone, repeat 5 RVD KS (synthetic (Xanthomonas TALE)); conditions: ELISA
[41] = system: TALE test backbone, repeat 5 RVD AT (synthetic (Xanthomonas TALE)); conditions: ELISA
[42] = system: TALE test backbone, repeat 5 RVD VG (synthetic (Xanthomonas TALE)); conditions: ELISA
[43] = system: TALE test backbone, repeat 5 RVD AD (synthetic (Xanthomonas TALE)); conditions: ELISA
[44] = system: TALE test backbone, repeat 5 RVD PW (Xanthomonas sp. (engineered)); conditions: RVD PW; 0.00 on all four bases
[45] = system: TALE test backbone, repeat 5 RVD NA (synthetic (Xanthomonas TALE)); conditions: ELISA
[46] = system: TALE test backbone, repeat 5 RVD HG (synthetic (Xanthomonas TALE)); conditions: ELISA
[47] = system: TALE test backbone, repeat 5 RVD DH (synthetic (Xanthomonas TALE)); conditions: ELISA
[48] = system: TALE test backbone, repeat 5 RVD ND (synthetic (Xanthomonas TALE)); conditions: ELISA
[49] = system: TALE test backbone, repeat 5 RVD AK (Xanthomonas sp. (engineered)); conditions: RVD AK; other bases 0.00-0.01
[50] = system: TALE test backbone, repeat 5 RVD KI (synthetic (Xanthomonas TALE)); conditions: ELISA
[51] = system: TALE test backbone, repeat 5 RVD SN (Xanthomonas sp. (engineered)); conditions: RVD SN
[52] = system: TALE test backbone, repeat 5 RVD KN (Xanthomonas sp. (engineered)); conditions: RVD KN
[53] = system: TALE test backbone, repeat 5 RVD NK (Xanthomonas sp. (engineered)); conditions: RVD NK; other bases 0.00
[54] = system: TALE test backbone, repeat 5 RVD HI (synthetic (Xanthomonas TALE)); conditions: ELISA
[55] = system: TALE test backbone, repeat 5 RVD DH (Xanthomonas sp. (engineered)); conditions: RVD DH
[56] = system: TALE test backbone, repeat 5 RVD IA (Xanthomonas sp. (engineered)); conditions: RVD IA
[57] = system: TALE test backbone, repeat 5 RVD VG (Xanthomonas sp. (engineered)); conditions: RVD VG
[58] = system: TALE test backbone, repeat 5 RVD TP (Xanthomonas sp. (engineered)); conditions: RVD TP

Sequence: GGAGCCATCTGGCCGGGT (double strand) [NT-L target (NTF3 promoter)]
- activity (fold activation) [1]: 1
- activity (fold activation) [2]: 1.96

Sequence: GGGCTCTCCCATGCAT (double strand) [101139 site]
- activity [3]: 6.7 % NHEJ

Sequence: TATAAATACCTTCT (double strand) [TALE13 target]
- activity [4]: 99.3 % cleavage
- activity [5]: 1.1 % cleavage
- activity [6]: 98.5 % cleavage
- activity [7]: 97.8 % cleavage

Sequence: TCCTAGAAGGGCAGGC (double strand) [101141 site]
- activity [8]: 6.7 % NHEJ

Sequence: TTGACAATCCT (double strand) [CAA target]
- binding signal (normalized ELISA) [9]: 0.36
- binding signal (normalized ELISA) [10]: 0.06
- binding signal (normalized ELISA) [11]: 0.15
- binding signal (normalized ELISA) [12]: 0.32
- binding signal (normalized ELISA) [13]: 0.46
- binding signal (normalized ELISA) [14]: 1
- binding signal (normalized ELISA) [15]: 0.47
- binding signal (normalized ELISA) [16]: 0.48
- binding signal (normalized ELISA) [17]: 0.04
- binding signal (normalized ELISA) [18]: 0.15
- binding signal (normalized ELISA) [19]: 0.21
- binding signal (normalized ELISA) [20]: 0.47
- binding signal (normalized ELISA) [21]: 0.6
- binding signal (normalized ELISA) [22]: 0
- binding signal (normalized ELISA) [23]: 0.12
- binding signal (normalized ELISA) [24]: 0.2
- binding signal (normalized ELISA) [25]: 0.75
- binding signal (normalized ELISA) [26]: 0.02
- binding signal (normalized ELISA) [27]: 0.16
- binding signal (normalized ELISA) [28]: 0.49
- binding signal (normalized ELISA) [29]: 0.34
- binding signal (normalized ELISA) [30]: 0.73
- binding signal (normalized ELISA) [31]: 0.15
- binding signal (normalized ELISA) [32]: 0.51
- binding signal (normalized ELISA) [33]: 0.51
- binding signal (normalized ELISA) [34]: 0
- binding signal (normalized ELISA) [35]: 0.65
- binding signal (normalized ELISA) [36]: 0.04
- binding signal (normalized ELISA) [37]: 0.5
- binding signal (normalized ELISA) [38]: 0.67
- binding signal (normalized ELISA) [39]: 0.43
- binding signal (normalized ELISA) [40]: 0.95
- binding signal (normalized ELISA) [41]: 1.29
- binding signal (normalized ELISA) [42]: 0.05
- binding signal (normalized ELISA) [43]: 0.02
- binding signal (normalized ELISA) [44]: 0
- binding signal (normalized ELISA) [45]: 0.59
- binding signal (normalized ELISA) [46]: 0.38
- binding signal (normalized ELISA) [47]: 0.01
- binding signal (normalized ELISA) [48]: 0.06

Sequence: TTGACGATCCT (double strand) [CGA target]
- binding signal (normalized ELISA) [9]: 0.2
- binding signal (normalized ELISA) [10]: 0
- binding signal (normalized ELISA) [49]: 0.21
- binding signal (normalized ELISA) [11]: 0.02
- binding signal (normalized ELISA) [12]: 0.12
- binding signal (normalized ELISA) [50]: 0.02
- binding signal (normalized ELISA) [13]: 0.24
- binding signal (normalized ELISA) [14]: 0.83
- binding signal (normalized ELISA) [15]: 0.81
- binding signal (normalized ELISA) [17]: 0
- binding signal (normalized ELISA) [51]: 0.92
- binding signal (normalized ELISA) [18]: 0.01
- binding signal (normalized ELISA) [52]: 1
- binding signal (normalized ELISA) [19]: 0.05
- binding signal (normalized ELISA) [20]: 0.2
- binding signal (normalized ELISA) [53]: 0.15
- binding signal (normalized ELISA) [21]: 0.02
- binding signal (normalized ELISA) [22]: 0
- binding signal (normalized ELISA) [23]: 0.01
- binding signal (normalized ELISA) [24]: 0.03
- binding signal (normalized ELISA) [54]: 0.04
- binding signal (normalized ELISA) [26]: 0
- binding signal (normalized ELISA) [27]: 0.01
- binding signal (normalized ELISA) [28]: 0.25
- binding signal (normalized ELISA) [29]: 0.06
- binding signal (normalized ELISA) [30]: 0.53
- binding signal (normalized ELISA) [31]: 0
- binding signal (normalized ELISA) [32]: 0.87
- binding signal (normalized ELISA) [33]: 0.71
- binding signal (normalized ELISA) [34]: 0.15
- binding signal (normalized ELISA) [35]: 0.02
- binding signal (normalized ELISA) [36]: 0.01
- binding signal (normalized ELISA) [37]: 0.86
- binding signal (normalized ELISA) [55]: 0.36
- binding signal (normalized ELISA) [40]: 0.74
- binding signal (normalized ELISA) [41]: 0.76
- binding signal (normalized ELISA) [42]: 0.01
- binding signal (normalized ELISA) [43]: 0
- binding signal (normalized ELISA) [45]: 0.41
- binding signal (normalized ELISA) [46]: 0.11
- binding signal (normalized ELISA) [48]: 0

Sequence: TTGACTATCCT (double strand) [CTA target]
- binding signal (normalized ELISA) [9]: 1.23
- binding signal (normalized ELISA) [56]: 1.2
- binding signal (normalized ELISA) [10]: 0.05
- binding signal (normalized ELISA) [12]: 0.87
- binding signal (normalized ELISA) [50]: 0.04
- binding signal (normalized ELISA) [13]: 1.54
- binding signal (normalized ELISA) [14]: 0.67
- binding signal (normalized ELISA) [16]: 1.3
- binding signal (normalized ELISA) [17]: 0.84
- binding signal (normalized ELISA) [57]: 0.56
- binding signal (normalized ELISA) [18]: 0.76
- binding signal (normalized ELISA) [19]: 1.09
- binding signal (normalized ELISA) [20]: 1.29
- binding signal (normalized ELISA) [21]: 0.02
- binding signal (normalized ELISA) [22]: 0
- binding signal (normalized ELISA) [23]: 0.79
- binding signal (normalized ELISA) [24]: 1.24
- binding signal (normalized ELISA) [54]: 0.04
- binding signal (normalized ELISA) [26]: 0.51
- binding signal (normalized ELISA) [28]: 1.52
- binding signal (normalized ELISA) [29]: 0.61
- binding signal (normalized ELISA) [30]: 1.64
- binding signal (normalized ELISA) [31]: 0.09
- binding signal (normalized ELISA) [32]: 0.01
- binding signal (normalized ELISA) [33]: 0.54
- binding signal (normalized ELISA) [34]: 0
- binding signal (normalized ELISA) [58]: 1.2
- binding signal (normalized ELISA) [35]: 0.02
- binding signal (normalized ELISA) [36]: 0.68
- binding signal (normalized ELISA) [37]: 0.01
- binding signal (normalized ELISA) [39]: 0.02
- binding signal (normalized ELISA) [40]: 0.81
- binding signal (normalized ELISA) [41]: 0.56
- binding signal (normalized ELISA) [43]: 0.01
- binding signal (normalized ELISA) [45]: 1.72
- binding signal (normalized ELISA) [46]: 1.49
- binding signal (normalized ELISA) [47]: 0.03
- binding signal (normalized ELISA) [48]: 0.02
